Data published in the DeepSol protein solubility set.

Assay: soluble on expression in E. coli; label from the status in PepcDB or PDB records

Row | Sequence | soluble on expression in E. coli
1 | MGPAQIWRLKFSNDKLTWEQECTFERSQYYDSIICACVYRFYHGAPPVVLFGTYSGRILQYELPPPTKFVRKSMKDVPKCGKPINLLINHGIYFIRQTGFNEIASITPFGLYILRENFHASKRLGKFGQFWLNRLQNRLLVKNPGSIDDFSAAEIRRLSIDSAQEQMRPRIGSTVSQLTFRYSDDDTLLLEKGGEKRRQTLGARDFQVSPRFYSRKIGKKIRFFLKFFREKLAGIENFRQIGKLAKMKISGKPANCQNFLPISNRGKLRKNFFFSENNDKF | not soluble
2 | MADTEGTSSSIPTSTNSSRHRASRGRGGRFRQAPRQVGANTADNLDAAPLMNPRGGHRGGSGNKRGRGQKEATSASRLQMQPEANFTFNPNAATFNPAQSVLFDPSVPPPTIGASTHSNQNSRQQEPSQNRRRRGGQQNTQRRQLEIQEQRGDSHPQNQSRQNNRNQLNVDRIANQQNKSVQNPSRNPGNSRRGQGARRREQKEEPLTEEETKILADKPLREGLVYLLENNKYECAICYTRITTRQGVWSCKTCYHIFHISTGCITDWARSSRDKEGANTWRCPTCQTENETMPYNYYCFCGRMRNPNFRVGEVPHSCGETCGGARKFGCPHPCTELCHPGPCIECKLFTTKSCNCGKTKKSVRCGSDQEVMCETVCGKQLSCGQHNCERICHSGDCGECTVILEQDCFCGKTPKEVSCNPCAHEKYSCGSECDGMFSCGIHHCTKKCHDKECGECETGANRIRTCPCGRNTLQSLGVTRKKCTDMVPTCDSVCDKWLTCGTPGKNHHCREKCHEGPCPPCNLNTSVICRCGTSKGVIPCDEYLQIMKTTGEYLCTKRCRKKKSCGMHKCQEVCCIQDEHFCLQMCNKRLSCGIHTCENVCHAGQCRPCLQASFDEQFCHCGHTVRMPPIPCGARLPVCSQPCVRPHSCDHSVSHKCHGEQNCPPCTQLTEKMCYGGHRVRKNIPCHIDSVSCGVVCKKPLKCGVHVCQRTCHGEECEKEGEKCTKKCETIRELCEHPCALPCHEDSPCEPSPCKASVRISCECGRIKKDAPCCEVDKMILSKLEKEEEEKSESDGEEKVVKEGILKRSTSFSQLNCMKCDDECKKLERNRKVAEALEVDTDEYGMNKLAPTISFPCYLKEMVRTNIDFVKSVEKILIDLVIQILSGEAYHDTFRAHLPAMSIEKRRFVHEYANFFNIASESVDSPPKRSIVLTAVRGKSHQPLVLISDLVNYKGALKTPGPAVIRKDIMDQALSKKEETEGLMKPLRCTEKMVVRREARPMKEITAPIPLKQQNQFALLGSDVDSDDEESNVPTTSNLVSSPPKDWWKDEEEGWQKVQQKEYVVEVERDMTEDEIEAAKKLDEGPTWEDQCDEDAPATETSSAIESPAKEEPVAELLE | soluble
3 | MGSDKIHHHHHHMLVVTTACNLDCAYCYEGGGNGQGEMMDLDTALRALDLVAASNQPFHVQLTGGEPLLAGELVFRILEYIRNNNLPATTAIQTNGVLLDHQTARRLHSFGTAVGVSVDGLPAIQEQLRGQGAATWKALAMLDSERVPFSVTTVLSSRNTRDLSTLGMALHSMPAASAIGLDLLVQKGSAAAKIGVQPPDAVTIRSGVTRLLATLDVLNAQRSRPLILRERQTVLKALGRDEARPYCQACTGSSLAVTPRGELYPCTQTLGDARFHLGTLDHPRLSGTALPDGRLPKREECAGCGLQGRCPGDCPSRLHYNGADGAGLVCALYRTICDYCLYKGEIPS | not soluble
4 | MSHFFADHDAPLSMLSVKTEYFPQLTDKEQKYAHFMSKASHAGSRVVMRQVSHESEPIFDLILAIHSKLNGKYPEDDITQKQQTGLYLEYVSQFLSNLGNFKSFGDTKFIPRCEVKFFKQLLELAKINPSSSPLTLSPVDVNHEFTSHHLFSTINELIDIGIYHVEEKAALLGFPSQGYTSAYYLGLPVTPEDMALLKEQLFAELAILPENTRINKVGENSFQIWVASENVKNQITETYPSGQITLSNAVTKVEFIFGDHSREMRLVASYLKEAQKFAANDTQKAMLQEYINHFVTGSSQAHKEAQKLWVKDISPVIETNIGFIETYREPSGIIGEFESLVAIQNKERTAKFSSLVNNAEEFISLLPWSKDYEKPIFNPPDFTSLEVLTFTGSGIPAGINIPNYDDVRLKIGFKNVSLGNILSAAAKSSSKHPPSFISQEDRPIFEKYQSDSFEVQVDIHELLGHGSGKLLTEFTDGFNFDKENPPLGLDGKPVSTYYKVGETWGSKFGQLAGPFEECRAEVIAMFLLTNKKILDIFGFHDVESQDKVIYAGYLQMARAGLLALEYWNPKTGKWGQPHMQARFSIMKTFMKHSTDKNFLKLEMNSTNDDFAIKLDKSLIKTAGHECVKDYLKHLHVYKCSGDVEQGSKYFIDRSTVTPDLASLRDIVLSKRLPRRQFIQSNSYIDDNNKVTLKEYDETPQGMLQSFLDREL | soluble
5 | MGANALDFYPEPLREEIERLNGRIYPAVNNGVYRAGFATRQDAYEEAFVQLFEELDYLEGLLGERRYLAGEYLTEADIRLFTTLVRFDAVYHGHFKCNLRRIEDYPNLSGWLRELYQRPGIGETVLEHHHHHH | not soluble
